Literature values as cited in publication PMC8405992.
Read-outs that look alike come from different tables or passages of the source.

Key:
[1] = target: Dsk2 UBL (Saccharomyces cerevisiae) (UniProt P48510)
[2] = target: Ubp6 UBL (Saccharomyces cerevisiae) (UniProt P43593)
[3] = target: Ubp6 UBL (Saccharomyces cerevisiae) (UniProt P43593); remark: listed apart in the source
[4] = target: Dsk2 UBL (Saccharomyces cerevisiae) (UniProt P48510); remark: listed apart in the source
[5] = target: Rad23-UBL UBL (Saccharomyces cerevisiae) (UniProt P32628)
Rad23-UBL UBL (Saccharomyces cerevisiae), sequence (P32628 1-77): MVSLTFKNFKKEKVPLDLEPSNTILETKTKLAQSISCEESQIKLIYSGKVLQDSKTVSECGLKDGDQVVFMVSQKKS

[6] = target: Rad23 UBL (Saccharomyces cerevisiae) (UniProt P32628)
Rad23 UBL (Saccharomyces cerevisiae), sequence (P32628 1-77): as above

Ubp6 UBL (Saccharomyces cerevisiae), sequence (P43593 6-80): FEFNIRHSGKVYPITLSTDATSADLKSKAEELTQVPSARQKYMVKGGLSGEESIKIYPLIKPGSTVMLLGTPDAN
Dsk2 UBL (Saccharomyces cerevisiae), sequence (P48510 1-76): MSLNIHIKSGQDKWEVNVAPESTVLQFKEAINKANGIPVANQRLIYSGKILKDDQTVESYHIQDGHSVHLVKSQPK
Rpn1, sequence (P38764 2-993): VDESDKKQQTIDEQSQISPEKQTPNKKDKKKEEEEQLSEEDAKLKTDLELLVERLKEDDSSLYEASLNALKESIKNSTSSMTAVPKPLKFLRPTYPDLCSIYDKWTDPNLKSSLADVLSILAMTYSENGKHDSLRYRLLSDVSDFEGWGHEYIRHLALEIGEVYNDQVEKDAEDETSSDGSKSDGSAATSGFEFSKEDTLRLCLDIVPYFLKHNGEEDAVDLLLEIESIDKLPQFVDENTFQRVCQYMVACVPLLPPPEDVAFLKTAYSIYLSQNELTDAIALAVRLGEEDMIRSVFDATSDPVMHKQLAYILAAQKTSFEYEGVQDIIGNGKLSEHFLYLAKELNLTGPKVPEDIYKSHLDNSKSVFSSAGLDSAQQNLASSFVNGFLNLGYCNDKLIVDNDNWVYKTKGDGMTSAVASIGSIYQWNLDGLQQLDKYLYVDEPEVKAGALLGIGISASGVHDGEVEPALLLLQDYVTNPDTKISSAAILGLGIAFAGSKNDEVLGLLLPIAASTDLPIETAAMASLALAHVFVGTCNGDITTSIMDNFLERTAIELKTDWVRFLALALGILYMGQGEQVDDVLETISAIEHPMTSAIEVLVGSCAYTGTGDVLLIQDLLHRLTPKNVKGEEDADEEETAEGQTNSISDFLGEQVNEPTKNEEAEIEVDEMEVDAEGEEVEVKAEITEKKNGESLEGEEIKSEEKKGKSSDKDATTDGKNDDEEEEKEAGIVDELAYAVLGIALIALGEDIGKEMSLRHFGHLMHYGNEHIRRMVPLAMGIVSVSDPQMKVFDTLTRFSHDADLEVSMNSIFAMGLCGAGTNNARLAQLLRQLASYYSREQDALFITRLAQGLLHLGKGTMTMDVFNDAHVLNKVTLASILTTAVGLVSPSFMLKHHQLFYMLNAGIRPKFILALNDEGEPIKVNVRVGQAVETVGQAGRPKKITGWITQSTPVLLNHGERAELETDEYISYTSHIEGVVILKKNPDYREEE
Rpn1 391-642, sequence (P38764 391-642): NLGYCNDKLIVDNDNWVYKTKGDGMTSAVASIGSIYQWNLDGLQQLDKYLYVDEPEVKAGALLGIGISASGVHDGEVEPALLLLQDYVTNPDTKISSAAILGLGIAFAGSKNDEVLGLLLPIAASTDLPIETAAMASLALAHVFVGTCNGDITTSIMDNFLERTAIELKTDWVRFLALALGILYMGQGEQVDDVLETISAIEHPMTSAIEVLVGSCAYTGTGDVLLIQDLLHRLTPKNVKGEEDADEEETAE

Substance: Rpn1 391-642 (from UniProt P38764)
- Kd [1]: 22 µM
- Kd [2]: 40 µM

Substance: Rpn1 (from UniProt P38764)
- Kd [3]: 2 µM
- Kd [4]: 12 µM

Substance: Rpn1 T1 site (from UniProt P38764)
- Kd [5]: 0.064 µM
- Kd [6]: 0.064 µM
